We go through eight molecules from publication PMC9081242 (Structure (London, England : 1993), 2022).

Data set [1] deals with CCM1 D94R1 (non-glycosylated, spin-labelled) (human) (UniProt P13688). Kind of data set: continuous-wave EPR.
Data set [2] has as its target CCM1 E5R1 (non-glycosylated, spin-labelled) (human) (UniProt P13688). Kind of data set: continuous-wave EPR.
Data set [3] addresses CCM1 Q103R1 (non-glycosylated, spin-labelled) (human) (UniProt P13688). Kind of data set: continuous-wave EPR.
Data set [4] concerns the target cgCCM1 E5R1 (complex N-linked glycans, spin-labelled) (human) (UniProt P13688). Kind of data set: continuous-wave EPR.
Data set [5] has as its target cgCCM1 Q103R1 (complex N-linked glycans, spin-labelled) (human) (UniProt P13688). Kind of data set: continuous-wave EPR.
In data set [6] the target is gCCM1 E5R1 (single GlcNAc modifications, spin-labelled) (human) (UniProt P13688). Description: continuous-wave EPR.
Data set [7] addresses gCCM1 Q103R1 (single GlcNAc modifications, spin-labelled) (human) (UniProt P13688). Kind of data set: continuous-wave EPR.
The data set “SEC” deals with the molecule itself. Description: SEC. In general terms: In gel filtration, larger molecules generally elute earlier.

“CCM1 D94R1 (non-glycosylated, spin-labelled) (from UniProt P13688 69-175) (domain or fragment)”: the stoichiometry N in data set [1] was 2.
“CCM1 E5R1 (non-glycosylated, spin-labelled) (from UniProt P13688 69-175) (domain or fragment)”: the stoichiometry N in data set [2] is 2.
“CCM1 Q103R1 (non-glycosylated, spin-labelled) (from UniProt P13688 69-175) (domain or fragment)” came in with a stoichiometry N in data set [3] of 2.
Regarding “cgCCM1 E5R1 (complex N-linked glycans, spin-labelled) (from UniProt P13688 68-175) (domain or fragment)”, in data set [4], the stoichiometry N was determined as 2.
Consider “cgCCM1 Q103R1 (complex N-linked glycans, spin-labelled) (from UniProt P13688 68-175) (domain or fragment)”, for which the stoichiometry N in data set [5] was 2.
The molecule “gCCM1 E5R1 (single GlcNAc modifications, spin-labelled) (from UniProt P13688 68-175) (domain or fragment)” had a stoichiometry N in data set [6] of 2.
For the molecule “gCCM1 Q103R1 (single GlcNAc modifications, spin-labelled) (from UniProt P13688 68-175) (domain or fragment)”, the stoichiometry N in data set [7] was 2.

B1: non-glycosylated CEACAM1 N-terminal Ig-like domain (CCM1) (domain or fragment, human, UniProt P13688 35-141, looked up)
chain: QLTTESMPFNVAEGKEVLLLVHNLPQQLFGYSWYKGERVDGNRQIVGYAIGTQQATPGPANSGRETIYPNASLLIQNVTQNDTGFYTLQVIKSDLVNEEATGQFHVY
For B1, the “stoichiometry N” value in “SEC” was determined as 2.

By stoichiometry N is commonly meant the number of molecules, sites or subunits per partner or assembly.
